Laboratory results: the DeepSol protein solubility set

Test: soluble on expression in E. coli; label from the status in PepcDB or PDB records

Soluble on expression in E. coli, soluble:
MSLAQQSYPNKPIRVIVPFAAGSTTDIIARAIADKMGQSMGQSLVVDNRSGASGTIGQQAVATAPADGYTLMVHSSSHTVSPSTFAKLPFDTQADFAGVTPISSLPNALVIAPAKNIRTLQALLAAARARPGSINFASAGQGSATHLNAEKFRLAARIEATNIPFKGSAEAVTEVLSGRVDYYFSPIAPVIGQIRDGQLLALAVGSPKRAAALPEVPTTAEAGVPGSEFNFWIGMMAPAKTPRAIVERLHDEVVKALATPEVKERFLKLGADAWTLRPEQFDAYIKQEIASNAQLVQAAGLQVPQEGHHHHHH, MSLMYGYPEKWLEGMTTGEGIAAELRLGIVNGHIAEGTLLTENQMAKQFNVSRSPIRDAFKLLQQNQLIQLERMGAHVLPFGEQEKKEMYDLRLMLESFAFSRVKNQERLPIVKEMKKQLEMMKVAVKFEDAESFTKHDFEFHETLIKASNHQYLNSFWSHLKPVMMALVLTSMRQRMQQNPQDFERIHHNHQVFIDAVEQYDSQILKEAFHLNFDDVGKDIEGFWLNEGHHHHHH, VKAKKQETAATMKDVALKAKVSTATVSRALMNPDKVSQATRNRVEKAAREVGYLPQPMGRNVKRNESRTILVIVPDICDPFFSEIIRGIEVTAANHGYLVLIGDCAHQNQQEKTFIDLIITKQIDGMLLLGSRLPFDASIEEQRNLPPMVMANEFAPELELPTVHIDNLTAAFDAVNYLYEQGHKRIGCIAGPEEMPLCHYRLQGYVQALRRCGIMVDPQYIARGDFTFEAGSKAMQQLLDLPQPPTAVFCHSDVMALGALSQAKRQGLKVPEDLSIIGFDNIDLTQFCDPPLTTIAQPRYEIGREAMLLLLDQMQGQHVGSGSRLMDCELIIRGSTRALP, GMLKSKIKEEYVQMDQVDWKPFPAAFSTGGIRWKLLHVSPEMGSWTAIFDCPAGSSFAAHVHVGPGEYFLTKGKMDVRGGKAAGGDTAIAPGYGYESANARHDKTEFPVASEFYMSFLGPLTFVKPDGSPIAVIGWEDAQGAWAA, MGFGDLKSPAGLQVLNDYLADKSYIEGYVPSQADVAVFEAVSSPPPADLCHALRWYNHIKSYEKEKASLPGVKKALGKYGPADVEDTTGSGATDSKDDDDIDLFGSDDEEESEEAKRLREERLAQYESKKAKKPALVAKSSILLDVKPWDDETDMAKLEECVRSIQADGLVWGSSKLVPVGYGIKKLQIQCVVEDDKVGTDMLEEQITAFEDYVQSMDVAAFNKI, MRGSHHHHHHGSVTTKRYTLPPLPYAYNALEPYISAEIMQLHHQKHHQGYVNGANAALEKLEKFRKGEAQIDIRAVLRDLSFHLNGHILHSIFWPNMAPPGKGGGKPGGKIADLINKFFGSFEKFKEEFSQAAKNVEGVGWAILVYEPLEEQLLILQIEKHNLMHAADAQVLLALDVWEHAYYLQYKNDRGSYVDNWWNVVNWDDVERRLQKALNGQIALKL, TEAAAQPHALPADAPDIAPERDLLSKFDGLIAERQKLLDSGVTDPFAIVMEQVKSPTEAVIRGKDTILLGTYNYMGMTFDPDVIAAGKEALEKFGSGTCGSRMLNGTFHDHMEVEQALRDFYGTTGAIVFSTGYMANLGIISTLAGKGEYVILDADSHASIYDGCQQGNAEIVRFRHNSVEDLDKRLGRLPKEPAKLVVLEGVYSMLGDIAPLKEMVAVAKKHGAMVLVDEAHSMGFFGPNGRGVYEAQGLEGQIDFVVGTFSKSVGTVGGFVVSNHPKFEAVRLACRPYIFTASLPPSVVATATTSIRKLMTAHEKRERLWSNARALHGGLKAMGFRLGTETCDSAIVAVMLEDQEQAAMMWQALLDGGLYVNMARPPATPAGTFLLRCSICAEHTPAQIQTVLGMFQAAGRAVGVIGLEHHHHHH, PRVSLFFFSADTDDHAWDKHALVLECAELADSLGLDAIWVPERHFDPFGAPYPSPGLLLAAIAARTSRIALRSGSVVLPLRDPLLVAEEWGVLDSLSRGRMGISLASGWHADDFVLNPEGYERRKDVLEERLADLHTLWNGASITRKGPGGRPVEVRTYPRPERTPEVWLTSSRNPDTWRTAGRLNLHVLTALLEQTIDEITERVGLYHQALTEAGHPTDGRQVTCMLHTHLASDPASVEQRVRGPLIRYLSAHMDLFSKYAAGGGAGIDPDEVTEADRQALLEHGLRRYMGTSGLFGSAESCLPKVERLGAAGITELGCLVDFGLPREQVLESVEELGRLRVALRETAGAPK, MGRSPCFFKSFKGKLHKDRSPDPSTLASPHPSTEARRPVEAGSAEWTWGWMKRLPPASLSPGIAMSCYSGDSMLQKYKVKNAYRLHWQGREEPGASTFASLVFQ, DDIKVAVVGAMSGPIAQWGDMEFNGARQAIKDINAKGGIKGDKLVGVEYDDACDPKQAVAVANKIVNDGIKYVIGHLCSSSTQPASDIYEDEGILMISPGATNPELTQRGYQHIMRTAGLDSSQGPTAAKYILETVKPQRIAIIHDKQQYGEGLARSVQDGLKAANANVVFFDGITAGEKDFSALIARLKKENIDFVYYGGYYPEMGQMLRQARSVGLKTQFMGPEGVGNASLSNIAGDAAEGMLVTMPKRYDQDPANQGIVDALKADKKDPSGPYVWITYAAVQSLATALERTGSDEPLALVKDLKANGANTVIGPLNWDEKGDLKGFDFGVFQWHADGSSTKAK

Soluble on expression in E. coli, not soluble:
MKRQRVVVKIGSSSLTDPKGGLCHDKLFDHVEAIAYLKQLGHDVILITSGAVAAGFGPLGYPARPTTIAGKQAAAAVGQSLLMQAYSSAFAQFGFTAAQLLLTRSDFYSRERFRNLFATITTLLENGAVPIINENDSVSIEELTFGDNDMLSALVAGFLHADALILLTDINGLYDANPKTNPQAKKYAFLPEITDEMIEAAGGIGSAVGTGGMRSKLLAARKALSFGVSVFIGAGSGKEKLADILAGKGDGTYIGAPFPKQMQMRKQWIAYHAPVAGTVTVDSGAEEALLMRGKSLLPAGVTAVSGDFHAMDVVDVVNEKGITIGRGQVYYAAADLEKVKGLPSEEARQYSYLHRPEVIHRDNWVTLRKESVSK, MGSDKIHHHHHHMGASAISQQISKLEQELSIRLLQRNAFGVTPTPAGLAFLKHSQLILRQVNFAIDAAHSARLSGHVSLGFPPTITALIGIPLMKLMSERYPDIRLEIVETLSGNLIQSINSRQLDIAIIFTNEIDKQWSIQPLVREQMYLMARKEVLEKYGLSECIKSGIIQSQQIGDIPLVLPRQRHSLRKLLEHKIGQLNVVYEIDGLHLLMDSLIHLDLASVRPGSACLQEYKHKLQLLKVVDPEVERINYLVSLAEEELSPAALAAKSAIKACVKELIQNQIWPCSEIIL, MGSDKIHHHHHHMRIPPLKAIIAFESVARTKSVNRAAEELGLTASAVSHQLSNLESQIGQPLFQRSGRGLVLTPTGERYLTDVTGSLADLSRATERASSRTEVDILRVHSSPSFGLMWLLPRLSSFQEANGDIELNLACSYENVSFSNGFYDIDVRHGYGNWDNLEVRTVRGEFIAPLASPQYLERHPVKAPEDLLAHRLIYSETPLVQWKQWFGRAGVSLAAQKTFDFSFDRSYMSLETAALGLGIALESLMLASVKIREGLLVPVFDATHAVEVGAHHLVYPRQNAELPRVKRFLAWIEREVAGHGRAS, QAILYVGHGSRVKKAQQEAAAFLEGCKAHISVPVQEISFLELQEPTIETGFEACVKQGATHIAVVPLLLLTAAHAKHDIPEEIVRVASRYPSVRISYGKPIGIDEEVVKAVYHRMKDIGVPYENARVVLIGRGSSDPDVKRDVTGIANLLQEMVPVKEVIPCFLTACGPNYKEVFSELEKDDGITTFIVPYLLFTGMLMNEIEREVQKLKAHNPNVYLSSYIGFHPHVKNAFLNRVRETAANSEGQFDFDGGSYASAAH, MKKLFGVGPDLLGDGKVLFEWSPKGNFLAAAGSKRKVNIFDRNGRLYDEVHFPPAEYPNPDGRACAAAQMQWDPAGEQLAILPAGNTHVFIWLAGNKEVQKIESEFKTQEFSCMAWSRNGMYLGVATVKGNVMMYNARERKKTPLVGKHTKKIVAAAWNKDNIMALAGQDKTVTLTDGVTGDTIKTFHLKDVPMDLCVSDKKEDGYSRREENTYSLNINRKTLYIMQCTAEGDRPLELAFLDTYGPIMKHSWFGDGYILLGYKNGYVAVVSSHSREISEEVHSGKYLDTLTDVTYCASLGRVAMAGANCVRVLDANADYNEIKGDAVDLDANQAIEKVGWTKDGQVLTVGTHNGYMHSFLASLPMVYDFHGTRVLYLTSLLEMTLLDVSRRQTVARIELENEPAFCGLGPSHAAVGMNNQAAFYSLGEKVGKVVQRREYLGTITAIKLNETQAAVLTGGHVVVHPISVEAGHAPDELDVVIPGPGQPANITCVALTPTFVITGSRTGTLSYYLSPDVTPVNEFRHDDGGIVRLFPQATGARLVFEDDKGALHLFNPVNDHVVAVPYTGRAETVMWDTSDTNVMVIGDGTALHSFLYVPVSLTGPQVQDLGKQAVPATHTPLTVCNGVVGCRLKSGAMDNVTLESHKMLQPGDAVARAAPAKRFAAALKLYKLRDAVECAKQLRQVESWRTLALAALDVLDIDTAINAYREIGDASMVLSLERVRQHEDRNLLSAHIMVLLEKDYGQAQELFLRSSVPRAALEMRMDLKHWTDALKLAEQLDPDAIATICKEHGAMLEMTGEYSNAKSHYQQALDALAVSVGPAQPDLEAACKAGIARTTLQLGDLRQGRQLAMQLNSQTLFKECALILEGLQQLTEAAEMYERAGQFERAASIYIQTKNFAAAAPLMARISSSKLQLQFAKAKEAEGRWQEAAAAYEAAGDMDAVVRLCLERLSQPQRAYAIVRKTQSVEAANQLSRFCLQSQDFGGAVEFLLMAGQMDQAFDIAMGHNEMDTFARIVAASAKPVDYQRIAQYYESRGEYDKAADMWSKCDQAPRAVQLYLKVGTNPALEKAVQVVEQTRSHQLGVLVLDYVNEEKDGTTRDEFRFKLNIAMGQFAEAARDALEMARFEQEEGNYRVAHDKLFGTVKQLEALNTKPPGELLRALMLLHSYTLVKSLIAINDHTTAARMLVRVARNISKFPKHIVPILTSTVIECHRANLKKTAFEYASMLMRPEYRDQVAVKYKKKIELMVRKPEKDPEELEEPLADCPFCNMPGPETELQCISCQNILPFDLATGKRMVLSDWAECPGCKFPASASQFIRIISAEGRCPM, MGERIIPKNMKPMNGMLLEHLARYYFSTPYASGRVLDIACGTGYGSVMVAKTRKTEVDQVLGVDFDADVIHYAKQNYYHPKVSFLVGDAMDPYLRNQIGTFDTILSFETIEHVKDDRLFIERMRQLLKKDGTLVLSTPFGQGRGKPSDEPFHYHQLTEEEFRSLFDSFSEKEVFYQRGVTIEPKRTNVHYAFGVAVCKLEHHHHHH, MGSDKIHHHHHHMSRQEQTPLFSGVVAHAKHNPVQFHIPGHKKGAGMDPAFRSFIGDNALSIDLINIGPLDDLHHPHGIIKEAQELAAEAFGADHTFFSVQGTSGAIMTMIMSVVGPGEKIIVPRNVHKSIMSAIVFSGATPVFIHPEIDPLLGISHGITIEAVEKALDAHPDAKGLLVINPTYFGIAANLKKIVELCHSRDVPVLVDEAHGVHIHFHEALPLSAMQAGADMAATSVHKLGGSLTQSSILNVREGLVSAKRVQTIISMLTTTSTSYLLLASLDAARKHLATNGRDLIGYTIQLADQARDQINAIDGLYCVGKEILGTIATYDYDPTKLIISVKNLGITGYDAEVWLREHYQIEVELSDLYNILCIVSFGDTEREMDLLVKALSELADLHKHGICERSPVSVYVPNIPTLAMSPRDAFYAETEVVPFEDSVGRTIAEFIMVYPPGIPILIPGEIITESNLAYIRENNRAGLPVQGPEDDTFRTLRVIKEHEAIR, MQQEHRECIEQCYECAAACDICASSCLREDNVEMMKHCIQLDMQCAAICRLAAQFMALESEYSQKLCRLCADICKACAEECARHDHDHCQNCARACSQCADACLKMAALEHHHHHH, MSLANILAIDDSGLMQAFWVRILSRSQHNVITVSSGDEMRGVLATMNPQLIFLDLSFPGENGFELLQHIRSYQHCLEIPVIAVSGYAGEDTRQACREAGFTDFLAKPFSLAELRGMLARYLDHATEGHHHHHH
